Results taken from article PMC9352680, “A comprehensive thermodynamic model for RNA binding by the Saccharomyces cerevisiae Pumilio protein PUF4”.

T1: PUF4 RNA-binding domain (Saccharomyces cerevisiae, UniProt P25339 537-888)
T1 sequence: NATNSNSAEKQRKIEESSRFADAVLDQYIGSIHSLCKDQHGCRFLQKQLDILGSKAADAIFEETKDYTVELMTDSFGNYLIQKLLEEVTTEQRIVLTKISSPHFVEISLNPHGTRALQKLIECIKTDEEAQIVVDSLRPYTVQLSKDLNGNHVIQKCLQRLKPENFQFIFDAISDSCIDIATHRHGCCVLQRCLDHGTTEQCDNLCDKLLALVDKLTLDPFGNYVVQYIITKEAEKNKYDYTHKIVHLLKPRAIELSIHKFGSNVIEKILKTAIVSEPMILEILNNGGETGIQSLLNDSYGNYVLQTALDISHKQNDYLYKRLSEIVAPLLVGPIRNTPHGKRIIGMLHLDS

B1: Ic_S2_P3E.1_K3.1_C3.1_H3.1_A3.1_F3.1_[A8T]_T3.1 (ssRNA)
RNA: UUUGAUUAAUAUGAUAUCGUUCUUUCUUGUAUAUUUUCUUUCUCGAUAUCAUAUUAAUCUUU

Each binder was assayed against T1, PUF4 RNA-binding domain (assay: Mg; RNA-MaP; 20 mM Na-HEPES pH 7.4, 30 mM KOAc, 0.75 mM MgCl2, 0.1% Tween-20, 5% glycerol, 0.1 mg/mL BSA, 2 mM DTT; 25 C; 0.0125-409.6 nM protein). Settings: tags: N-His6-TEV cleaved; C-SNAP kept, Cy3B-labelled; label: tethered on chip by stalled RNA polymerase.

| Binder | Kd |
| --- | --- |
| UCUCUUCUUGUUUCCAUAUAUAUCUCUU (ssRNA) [Ie_S1_P3E.2_K3.1_C3.2_H3.1_[+3TTCC]_A3.1_F3.1_T3.2] | 69.3 nM |
| UCUCUUCUUGUACCCUAUAUAUCUCUU (ssRNA) [Ie_S1_P3E.2_K3.1_C3.2_H3.1_[+4CCC]_A3.1_F3.1_T3.2] | 8.38 nM |
| UCUCUUCUUGUAUACUAUAUCUCUU (ssRNA) [Ie_S1_P3E.2_K3.1_C3.2_H3.1_A3.1_[+6C]_F3.1_T3.2] | 0.878 nM |
| UCUCUUCUUGUCCUAUAUAUAUCUCUU (ssRNA) [Ie_S1_P3E.2_K3.1_C3.2_H3.1_[+2TCC]_A3.1_F3.1_T3.2] | 62.9 nM |
| UCUCUUCUUGUAUUAUAUAUCUCUU (ssRNA) [Ie_S1_P3E.2_K3.1_C3.2_H3.1_A3.1_[+5T]_F3.1_T3.2] | 2.15 nM |
| UCUCUUCUUGUUUCCUAUAUAUAUCUCUU (ssRNA) [Ie_S1_P3E.2_K3.1_C3.2_H3.1_[+3TTCCT]_A3.1_F3.1_T3.2] | 106 nM |
| UCUCUUCUUGUACUUAUAUAUCUCUU (ssRNA) [Ie_S1_P3E.2_K3.1_C3.2_H3.1_[+4CT]_A3.1_F3.1_T3.2] | 6.52 nM |
| UCUCUUCUUGUAUAUACUUAUCUCUU (ssRNA) [Ie_S1_P3E.2_K3.1_C3.2_H3.1_A3.1_F3.1_[+8CT]_T3.2] | 9.04 nM |
| UCUCUUCUUCCCUGUAUAUAUAUCUCUU (ssRNA) [Ie_S1_P3E.2_K3.1_C3.2_H3.1_[+1CCCT]_A3.1_F3.1_T3.2] | 4.02 nM |
| UCUCUUCUUGUUCCUAUAUAUAUCUCUU (ssRNA) [Ie_S1_P3E.2_K3.1_C3.2_H3.1_[+2TTCC]_A3.1_F3.1_T3.2] | 104 nM |
| UCUCUUCUUGUAUAUUCAUAUCUCUU (ssRNA) [Ie_S1_P3E.2_K3.1_C3.2_H3.1_A3.1_F3.1_[+7TC]_T3.2] | 10.3 nM |
| UCUCUUCUUGCCUCUUAUAUAUAUCUCUU (ssRNA) [Ie_S1_P3E.2_K3.1_C3.2_H3.1_[+2CCTCT]_A3.1_F3.1_T3.2] | 1680 nM |
| UCUCUUCUUGUCAUAUAUAUCUCUU (ssRNA) [Ie_S1_P3E.2_K3.1_C3.2_H3.1_[+3C]_A3.1_F3.1_T3.2] | 67 nM |
| UCUCUUUGUAAUUUUAUCUCUU (ssRNA) [Ib_S1_P5E.1_K5.1_C5.1_H5.1_A5.1_[T5A]_[A7T]_F5.1_T5.1] | 5.31 nM |
| UCUCUUCUUGUAUCCAUAUAUCUCUU (ssRNA) [Ie_S1_P3E.2_K3.1_C3.2_H3.1_A3.1_[+5CC]_F3.1_T3.2] | 29.9 nM |
| UCUCUUUGUAUCGUUAUCUCUU (ssRNA) [Ib_S1_P5E.1_K5.1_C5.1_H5.1_A5.1_[T6C]_[A7G]_F5.1_T5.1] | 14.4 nM |
| UCUCUUUGUAUCUUUAUCUCUU (ssRNA) [Ib_S1_P5E.1_K5.1_C5.1_H5.1_A5.1_[T6C]_[A7T]_F5.1_T5.1] | 6.01 nM |
| UCUCUUCUUGCCUUAUAUAUAUCUCUU (ssRNA) [Ie_S1_P3E.2_K3.1_C3.2_H3.1_[+2CCT]_A3.1_F3.1_T3.2] | 1510 nM |
| UCUCUUCUUGUCCCAUAUAUAUCUCUU (ssRNA) [Ie_S1_P3E.2_K3.1_C3.2_H3.1_[+3CCC]_A3.1_F3.1_T3.2] | 64.7 nM |
| UCUCUUCUUCUCUCGUAUAUAUAUCUCUU (ssRNA) [Ie_S1_P3E.2_K3.1_C3.2_H3.1_[+1CTCTC]_A3.1_F3.1_T3.2] | 512 nM |
| UCUCUUCUUGUACCUAUAUAUCUCUU (ssRNA) [Ie_S1_P3E.2_K3.1_C3.2_H3.1_[+4CC]_A3.1_F3.1_T3.2] | 17.6 nM |

| Binder | Kd |
| --- | --- |
| UCUCUUCUUGUCUCUAUAUAUAUCUCUU (ssRNA) [Ie_S1_P3E.2_K3.1_C3.2_H3.1_[+2TCTC]_A3.1_F3.1_T3.2] | 456 nM |
| UCUCUUCUUGCUCUCUAUAUAUAUCUCUU (ssRNA) [Ie_S1_P3E.2_K3.1_C3.2_H3.1_[+2CTCTC]_A3.1_F3.1_T3.2] | 1140 nM |
| UCUCUUCUUGUAUAUCUCAUAUCUCUU (ssRNA) [Ie_S1_P3E.2_K3.1_C3.2_H3.1_A3.1_F3.1_[+7CTC]_T3.2] | 24.7 nM |
| UCUCUUCUUGUAUAUACCUUAUCUCUU (ssRNA) [Ie_S1_P3E.2_K3.1_C3.2_H3.1_A3.1_F3.1_[+8CCT]_T3.2] | 8.91 nM |
| UCUCUUCUUGUUUUAUAUAUAUCUCUU (ssRNA) [Ie_S1_P3E.2_K3.1_C3.2_H3.1_[+2TTT]_A3.1_F3.1_T3.2] | 27.9 nM |
| UCUCUUCUUGUAUAUACUAUCUCUU (ssRNA) [Ie_S1_P3E.2_K3.1_C3.2_H3.1_A3.1_F3.1_[+8C]_T3.2] | 8.83 nM |
| UCUCUUUGUAUGCUUAUCUCUU (ssRNA) [Ic_S1_P5E.1_K5.1_C5.1_H5.1_A5.1_[T6G]_[A7C]_F5.1_T5.1] | 32 nM |
| UCUCUUCUUGUACUCUAUAUAUCUCUU (ssRNA) [Ie_S1_P3E.2_K3.1_C3.2_H3.1_[+4CTC]_A3.1_F3.1_T3.2] | 3.95 nM |
| UCUCUUCUUGUAUCAUAUAUCUCUU (ssRNA) [Ie_S1_P3E.2_K3.1_C3.2_H3.1_A3.1_[+5C]_F3.1_T3.2] | 1.6 nM |
| UCUCUUCUUGCCUAUAUAUAUCUCUU (ssRNA) [Ie_S1_P3E.2_K3.1_C3.2_H3.1_[+2CC]_A3.1_F3.1_T3.2] | 1170 nM |
| UCUCUUCUUUUCCUGUAUAUAUAUCUCUU (ssRNA) [Ie_S1_P3E.2_K3.1_C3.2_H3.1_[+1TTCCT]_A3.1_F3.1_T3.2] | 5.37 nM |
| UCUCUUCUUGUUCCAUAUAUAUCUCUU (ssRNA) [Ie_S1_P3E.2_K3.1_C3.2_H3.1_[+3TCC]_A3.1_F3.1_T3.2] | 26.1 nM |
| UCUCUUCUUGUCCUCAUAUAUAUCUCUU (ssRNA) [Ie_S1_P3E.2_K3.1_C3.2_H3.1_[+3CCTC]_A3.1_F3.1_T3.2] | 798 nM |
| UCUCUUCUUCCUCUGUAUAUAUAUCUCUU (ssRNA) [Ie_S1_P3E.2_K3.1_C3.2_H3.1_[+1CCTCT]_A3.1_F3.1_T3.2] | 5.08 nM |
| UCUCUUCUUGUACUAUAUAUCUCUU (ssRNA) [Ie_S1_P3E.2_K3.1_C3.2_H3.1_[+4C]_A3.1_F3.1_T3.2] | 1.5 nM |
| UCUCUUCUUGUAUAUUUCAUAUCUCUU (ssRNA) [Ie_S1_P3E.2_K3.1_C3.2_H3.1_A3.1_F3.1_[+7TTC]_T3.2] | 6.46 nM |
| UCUCUUCUUGUUCAUAUAUAUCUCUU (ssRNA) [Ie_S1_P3E.2_K3.1_C3.2_H3.1_[+3TC]_A3.1_F3.1_T3.2] | 98.7 nM |
| UCUCUUCUUGUAUAUAUCUAUCUCUU (ssRNA) [Ie_S1_P3E.2_K3.1_C3.2_H3.1_A3.1_F3.1_[+8TC]_T3.2] | 9.28 nM |
| B1 | 1.67 nM |
| UCUCUUCUUGUCCAUAUAUAUCUCUU (ssRNA) [Ie_S1_P3E.2_K3.1_C3.2_H3.1_[+3CC]_A3.1_F3.1_T3.2] | 822 nM |
| UCUCUUCUUGCCCUUAUAUAUAUCUCUU (ssRNA) [Ie_S1_P3E.2_K3.1_C3.2_H3.1_[+2CCCT]_A3.1_F3.1_T3.2] | 1190 nM |

| Binder | Kd |
| --- | --- |
| UCUCUUCUUGCUCUUAUAUAUAUCUCUU (ssRNA) [Ie_S1_P3E.2_K3.1_C3.2_H3.1_[+2CTCT]_A3.1_F3.1_T3.2] | 824 nM |
| UCUCUUCUUGUAUAUCCCAUAUCUCUU (ssRNA) [Ie_S1_P3E.2_K3.1_C3.2_H3.1_A3.1_F3.1_[+7CCC]_T3.2] | 37.9 nM |
| UCUCUUCUUGUUCUCUAUAUAUAUCUCUU (ssRNA) [Ie_S1_P3E.2_K3.1_C3.2_H3.1_[+3TCTCT]_A3.1_F3.1_T3.2] | 68.4 nM |
| UCUCUUCUUGUACUCUCUAUAUAUCUCUU (ssRNA) [Ie_S1_P3E.2_K3.1_C3.2_H3.1_[+4CTCTC]_A3.1_F3.1_T3.2] | 31 nM |
| UCUCUUCUUGUAUAUUCCAUAUCUCUU (ssRNA) [Ie_S1_P3E.2_K3.1_C3.2_H3.1_A3.1_F3.1_[+7TCC]_T3.2] | 9.71 nM |
| UCUCUUCUUGUCCUCUAUAUAUAUCUCUU (ssRNA) [Ie_S1_P3E.2_K3.1_C3.2_H3.1_[+3CCTCT]_A3.1_F3.1_T3.2] | 139 nM |
| UCUCUUUGUAUCCUUAUCUCUU (ssRNA) [Ib_S1_P5E.1_K5.1_C5.1_H5.1_A5.1_[T6C]_[A7C]_F5.1_T5.1] | 9.16 nM |
| UCUCUUCUUGUCUUAUAUAUAUCUCUU (ssRNA) [Ie_S1_P3E.2_K3.1_C3.2_H3.1_[+3CTT]_A3.1_F3.1_T3.2] | 95.5 nM |
| UCUCUUCUUGUACUCUUAUAUAUCUCUU (ssRNA) [Ie_S1_P3E.2_K3.1_C3.2_H3.1_[+4CTCT]_A3.1_F3.1_T3.2] | 9.53 nM |
| UCUCUUCUUGUUCUAUAUAUAUCUCUU (ssRNA) [Ie_S1_P3E.2_K3.1_C3.2_H3.1_[+3TCT]_A3.1_F3.1_T3.2] | 53.2 nM |
| UCUCUUCUUGUCCCUAUAUAUAUCUCUU (ssRNA) [Ie_S1_P3E.2_K3.1_C3.2_H3.1_[+3CCCT]_A3.1_F3.1_T3.2] | 454 nM |
| UCUCUUCUUGUACCUCUAUAUAUCUCUU (ssRNA) [Ie_S1_P3E.2_K3.1_C3.2_H3.1_[+4CCTC]_A3.1_F3.1_T3.2] | 12.4 nM |
| UCUCUUCUUUCUCUGUAUAUAUAUCUCUU (ssRNA) [Ie_S1_P3E.2_K3.1_C3.2_H3.1_[+1TCTCT]_A3.1_F3.1_T3.2] | 4.87 nM |
| UCUCUUCUUGUAUAUCUCUCAUAUCUCUU (ssRNA) [Ie_S1_P3E.2_K3.1_C3.2_H3.1_A3.1_F3.1_[+7CTCTC]_T3.2] | 28.5 nM |
| UCUCUUCUUGUUAUAUAUAUCUCUU (ssRNA) [Ie_S1_P3E.2_K3.1_C3.2_H3.1_[+2T]_A3.1_F3.1_T3.2] | 29.7 nM |
| UCUCUUCUUGUACCCUUUAUAUAUCUCUU (ssRNA) [Ie_S1_P3E.2_K3.1_C3.2_H3.1_[+4CCCTT]_A3.1_F3.1_T3.2] | 20.6 nM |
| UCUCUUUGUAUGGUUAUCUCUU (ssRNA) [Ib_S1_P5E.1_K5.1_C5.1_H5.1_A5.1_[T6G]_[A7G]_F5.1_T5.1] | 37.1 nM |
| UCUCUUCUUGUAUAUAUUAUCUCUU (ssRNA) [Ie_S1_P3E.2_K3.1_C3.2_H3.1_A3.1_F3.1_[+8T]_T3.2] | 5.64 nM |
| UCUCUUCUUGUCUAUAUAUAUCUCUU (ssRNA) [Ie_S1_P3E.2_K3.1_C3.2_H3.1_[+2TC]_A3.1_F3.1_T3.2] | 844 nM |
